We go through three molecules from patent US20060034860A1 (CELLVIR, published 2006).

Assay [1] addresses T1, ATF6 alpha (prey34104, hATF6), prey fragments (Human, UniProt P18850 1-670).
T1 construct: also called prey34106
T1 sequence: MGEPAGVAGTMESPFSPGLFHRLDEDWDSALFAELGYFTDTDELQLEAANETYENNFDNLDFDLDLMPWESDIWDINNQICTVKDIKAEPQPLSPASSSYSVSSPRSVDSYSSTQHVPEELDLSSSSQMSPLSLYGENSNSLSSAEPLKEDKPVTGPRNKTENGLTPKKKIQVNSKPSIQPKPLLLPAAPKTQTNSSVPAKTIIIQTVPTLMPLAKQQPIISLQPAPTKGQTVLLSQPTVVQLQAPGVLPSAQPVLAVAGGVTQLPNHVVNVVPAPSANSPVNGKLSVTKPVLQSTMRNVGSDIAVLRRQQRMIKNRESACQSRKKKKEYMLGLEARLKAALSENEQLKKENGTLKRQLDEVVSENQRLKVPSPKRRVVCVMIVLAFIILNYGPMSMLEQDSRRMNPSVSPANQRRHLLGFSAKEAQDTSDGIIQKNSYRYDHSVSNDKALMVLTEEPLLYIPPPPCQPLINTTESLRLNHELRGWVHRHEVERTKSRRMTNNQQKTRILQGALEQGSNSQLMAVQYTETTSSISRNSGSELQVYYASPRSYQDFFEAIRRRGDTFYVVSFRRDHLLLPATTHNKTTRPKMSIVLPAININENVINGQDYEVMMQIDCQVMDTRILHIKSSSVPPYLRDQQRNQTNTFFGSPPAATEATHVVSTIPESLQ
In words: yeast two-hybrid screen, bait TM_v1 (pB6), Human CEMC7 Random Primed prey library; table of bait-prey interactions.

Assay [2] addresses T2, sterol regulatory element binding protein 2 (hSREBF2, hgx33), prey fragments (Human, UniProt Q12772 1-1141).
T2 construct: also called SREBP2
T2 sequence: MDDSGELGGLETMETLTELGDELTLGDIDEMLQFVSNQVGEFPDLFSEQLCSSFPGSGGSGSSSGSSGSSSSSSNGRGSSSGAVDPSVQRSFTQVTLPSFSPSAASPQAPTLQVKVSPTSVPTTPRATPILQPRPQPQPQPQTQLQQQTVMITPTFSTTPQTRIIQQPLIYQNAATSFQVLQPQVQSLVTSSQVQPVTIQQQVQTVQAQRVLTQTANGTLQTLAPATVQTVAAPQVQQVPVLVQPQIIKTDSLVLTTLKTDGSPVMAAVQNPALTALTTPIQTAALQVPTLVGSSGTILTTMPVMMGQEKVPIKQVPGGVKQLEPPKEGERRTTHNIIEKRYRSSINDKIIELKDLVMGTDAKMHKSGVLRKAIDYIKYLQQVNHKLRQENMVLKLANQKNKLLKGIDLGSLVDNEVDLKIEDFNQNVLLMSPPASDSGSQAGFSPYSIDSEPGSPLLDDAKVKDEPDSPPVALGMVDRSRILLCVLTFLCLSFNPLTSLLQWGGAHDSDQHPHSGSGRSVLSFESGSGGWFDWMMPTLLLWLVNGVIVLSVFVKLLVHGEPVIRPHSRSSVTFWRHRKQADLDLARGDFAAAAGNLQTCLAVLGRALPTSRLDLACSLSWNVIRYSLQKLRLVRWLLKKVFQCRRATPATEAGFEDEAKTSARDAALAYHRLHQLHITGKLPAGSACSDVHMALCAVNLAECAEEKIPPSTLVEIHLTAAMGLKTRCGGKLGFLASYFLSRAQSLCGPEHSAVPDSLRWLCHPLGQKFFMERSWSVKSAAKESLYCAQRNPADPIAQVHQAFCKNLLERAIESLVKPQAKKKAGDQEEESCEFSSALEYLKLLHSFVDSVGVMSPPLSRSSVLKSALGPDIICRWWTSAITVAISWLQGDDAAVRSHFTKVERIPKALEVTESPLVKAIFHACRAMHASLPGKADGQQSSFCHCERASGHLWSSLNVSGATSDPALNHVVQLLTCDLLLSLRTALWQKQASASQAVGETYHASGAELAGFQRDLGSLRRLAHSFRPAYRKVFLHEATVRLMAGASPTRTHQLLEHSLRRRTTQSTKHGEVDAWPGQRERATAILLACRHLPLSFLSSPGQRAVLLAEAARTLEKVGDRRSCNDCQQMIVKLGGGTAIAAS
The description is as above.

Assay [3] addresses T3, sterol regulatory element-binding protein 1 (hSREBF1, prey15532), prey fragments (Human, UniProt P36956 1-1147).
T3 construct: also called SREBP1; hSREBP 1
T3 sequence: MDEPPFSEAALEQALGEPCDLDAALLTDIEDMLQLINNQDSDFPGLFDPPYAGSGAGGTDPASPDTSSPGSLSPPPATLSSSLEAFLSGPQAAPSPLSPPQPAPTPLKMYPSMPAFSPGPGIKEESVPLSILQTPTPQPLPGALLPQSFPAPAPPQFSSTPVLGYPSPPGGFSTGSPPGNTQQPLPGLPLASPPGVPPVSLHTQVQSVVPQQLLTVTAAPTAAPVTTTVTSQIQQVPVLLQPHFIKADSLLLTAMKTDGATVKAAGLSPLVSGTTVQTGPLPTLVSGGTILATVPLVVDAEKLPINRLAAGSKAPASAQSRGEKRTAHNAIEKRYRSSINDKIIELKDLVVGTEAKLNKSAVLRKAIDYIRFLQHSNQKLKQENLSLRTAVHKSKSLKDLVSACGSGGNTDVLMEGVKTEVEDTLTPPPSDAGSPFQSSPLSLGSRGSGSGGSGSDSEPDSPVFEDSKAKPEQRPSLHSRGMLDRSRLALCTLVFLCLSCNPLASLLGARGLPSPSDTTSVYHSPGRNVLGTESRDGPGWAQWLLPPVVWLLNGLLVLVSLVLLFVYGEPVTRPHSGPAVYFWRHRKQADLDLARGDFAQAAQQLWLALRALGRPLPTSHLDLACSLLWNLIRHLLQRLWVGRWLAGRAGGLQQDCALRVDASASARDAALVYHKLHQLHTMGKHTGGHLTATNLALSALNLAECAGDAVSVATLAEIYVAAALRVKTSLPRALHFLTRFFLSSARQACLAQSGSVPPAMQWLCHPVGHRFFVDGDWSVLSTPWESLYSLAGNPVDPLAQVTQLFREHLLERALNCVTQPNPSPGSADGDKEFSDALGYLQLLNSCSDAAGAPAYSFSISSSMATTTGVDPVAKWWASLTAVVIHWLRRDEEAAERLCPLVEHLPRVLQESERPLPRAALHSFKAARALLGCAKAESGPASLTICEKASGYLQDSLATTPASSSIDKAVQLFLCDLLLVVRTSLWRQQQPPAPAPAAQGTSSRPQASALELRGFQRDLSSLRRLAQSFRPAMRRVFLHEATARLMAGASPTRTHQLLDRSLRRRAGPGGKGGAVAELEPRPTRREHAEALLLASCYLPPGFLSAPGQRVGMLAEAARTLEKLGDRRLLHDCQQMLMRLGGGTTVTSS
Described as above.

In assay [4] the target is T4, Human RNUT1 (prey024605), prey fragments (Human, UniProt O95149 1-360).
T4 construct: also called Snurportin1; Snurportin
T4 sequence (O95149 whole entry, the tested form may be a part): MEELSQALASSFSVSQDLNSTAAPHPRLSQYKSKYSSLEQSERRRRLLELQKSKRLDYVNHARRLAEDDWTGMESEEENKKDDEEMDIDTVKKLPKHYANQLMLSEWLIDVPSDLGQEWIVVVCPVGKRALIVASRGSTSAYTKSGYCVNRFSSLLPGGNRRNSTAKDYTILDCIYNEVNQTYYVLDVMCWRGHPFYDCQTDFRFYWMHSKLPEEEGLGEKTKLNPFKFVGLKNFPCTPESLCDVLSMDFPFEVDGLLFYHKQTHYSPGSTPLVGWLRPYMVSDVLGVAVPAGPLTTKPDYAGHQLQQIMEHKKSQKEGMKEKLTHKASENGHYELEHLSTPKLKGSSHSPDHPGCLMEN
Kind of assay: yeast two-hybrid screen, bait IN (pB27), CEMC7 random primed cDNA prey library; table of bait-prey interactions.

Assay [5] concerns the target T5, Human HBOA (prey001626), prey fragments (Human, UniProt O95251 1-611).
T5 construct: also called HBO1
Kind of assay: yeast two-hybrid screen, bait IN (pB27), CEMC7 oligo dT primed cDNA prey library; table of bait-prey interactions.

Assay [6] deals with Human EIF3S3 (prey024567), prey fragments (Human, UniProt O15372 1-352). The description is as above.
Human EIF3S3 (prey024567), prey fragments, sequence (O15372 whole entry, the tested form may be a part): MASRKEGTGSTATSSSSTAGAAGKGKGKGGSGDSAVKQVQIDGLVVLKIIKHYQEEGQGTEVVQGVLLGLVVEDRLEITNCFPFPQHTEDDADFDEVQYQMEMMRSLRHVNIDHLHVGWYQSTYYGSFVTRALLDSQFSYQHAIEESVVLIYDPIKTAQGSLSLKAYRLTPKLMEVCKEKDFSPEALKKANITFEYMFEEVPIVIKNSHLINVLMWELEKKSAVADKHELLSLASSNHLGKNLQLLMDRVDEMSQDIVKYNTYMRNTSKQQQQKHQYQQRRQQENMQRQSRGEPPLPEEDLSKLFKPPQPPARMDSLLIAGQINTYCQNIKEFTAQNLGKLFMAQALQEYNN
Assay [7] addresses T6, PolyrC-Binding Protein PCBP1 (prey6634), prey fragments (Human, UniProt Q15365 1-356).
T6 construct: also called polyRC BP1; HNRPE1
Kind of assay: yeast two-hybrid screen, bait VPU_v1 (pB27), Human CEMC7 dT Primed prey library; table of bait-prey interactions.

T6 sequence (Q15365 whole entry, the tested form may be a part): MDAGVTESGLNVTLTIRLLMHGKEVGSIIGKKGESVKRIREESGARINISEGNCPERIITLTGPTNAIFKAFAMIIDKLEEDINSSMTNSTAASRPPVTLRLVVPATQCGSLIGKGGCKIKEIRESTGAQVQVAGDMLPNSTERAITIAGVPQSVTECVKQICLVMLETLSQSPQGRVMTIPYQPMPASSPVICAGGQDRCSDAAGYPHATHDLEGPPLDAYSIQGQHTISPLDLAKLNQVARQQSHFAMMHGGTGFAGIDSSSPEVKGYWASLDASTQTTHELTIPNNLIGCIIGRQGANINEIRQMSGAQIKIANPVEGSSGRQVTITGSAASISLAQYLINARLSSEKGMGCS
T5 sequence (O95251 whole entry, the tested form may be a part): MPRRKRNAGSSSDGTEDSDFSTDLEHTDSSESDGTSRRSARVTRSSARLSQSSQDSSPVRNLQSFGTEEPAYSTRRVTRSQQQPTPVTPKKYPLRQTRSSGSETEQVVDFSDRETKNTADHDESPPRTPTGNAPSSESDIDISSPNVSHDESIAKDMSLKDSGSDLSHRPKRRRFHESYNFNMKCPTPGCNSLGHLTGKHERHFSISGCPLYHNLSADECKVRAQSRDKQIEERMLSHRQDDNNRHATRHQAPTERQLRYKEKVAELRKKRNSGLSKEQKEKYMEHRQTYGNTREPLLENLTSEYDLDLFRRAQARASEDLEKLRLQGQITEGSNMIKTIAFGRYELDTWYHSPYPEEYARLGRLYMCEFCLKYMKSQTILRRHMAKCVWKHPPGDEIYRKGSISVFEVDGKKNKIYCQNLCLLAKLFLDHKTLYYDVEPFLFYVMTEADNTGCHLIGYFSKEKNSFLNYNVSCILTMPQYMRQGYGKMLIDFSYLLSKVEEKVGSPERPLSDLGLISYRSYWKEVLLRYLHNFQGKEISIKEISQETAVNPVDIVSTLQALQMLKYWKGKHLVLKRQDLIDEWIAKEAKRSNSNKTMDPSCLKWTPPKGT

B1: cytoplasmic domain of HIV-1 Env TM Gp41, bait TM_v1 (other)
chain: VVLSIVNRVRQGYSPLSFQTHLPAQRGPDRPDGIEEEGGERDRDRSGPLVDGFLAIIWVDLRSLCLFSYHRLRDLLLIVTRIVELLGRRGWGVLKYWWNLLQYWIQELKNSAVSLLNATAIAVAEGTDRVIEILQRAFRAVLHIPVRIRQGLERALL
notes: also called TM cyto; TM Gp41 cytoplasmic domain
For the molecule B1, the binding result in assay [1], in assay [2] and in assay [3] was “binds” each time.

B2: HIV-1 Integrase (IN), bait IN (enzyme)
chain: FLDGIDKAQEEHEKYHSNWRAMASDFNLPPVVAKEIVASCDKCQLKGEAMHGQVDCSPGIWQLDCTHLEGKVILVAVHVASGYIEAEVIPAETGQETAYFLLKLAGRWPVTTIHTDNGSNFTSATVKAACWWAGIKQEFGIPYNPQSQGVVESMNKELKKIIGQVRDQAEHLKTAVQMAVFIHNFKRKGGIGGYSAGERIVDIIATDIQTKELQKQITKIQNFRVYYRDSRDPLWKGPAKLLWKGEGAVVIQDNSDIKVVPRRKAKIIRDYGKQMAGDDCVAGRQDED
Turning to B2, the binding result in assay [4], in assay [5] and in assay [6] was “binds” each time.

B3: HIV-1 Vpu, bait VPU_v1 (other)
chain: LQSLQVLAIVALVVATIIAIVVWTIVFIEYRKILRQRKIDRLINRITERAEDSGNESDGDQEELSALVERGHLAPWDVDDL
notes: It holds the N-terminal transmembrane anchor domain
For the molecule B3, the binding result in assay [7] is given as “binds”.
